# Measured values published in US11427805B2, “Methods of producing human foregut endoderm cells expressing PDX1 from human definitive endoderm” (ViaCyte, Inc., priority 2005, dated 2022).
# B1: FGF-4 (protein, UniProt P08620 31-206, looked up)
# Fibroblast growth factor 4: APTAPNGTLEAELERRWESLVALSLARLPVAAQPKEAAVQSGAGDYLLGIKRLRRLYCNVGIGFHLQALPDGRIGGAHADTRDSLLELSPVERGVVSIFGVASRFFVAMSSKGKLYGSPFFTDECTFKEILLPNNYNAYESYKYPGMFIALSKNGKTKKGNRVSPTMKVTHFLPRL
# notes: fibroblast growth factor
# B2: Wnt3a (protein, UniProt P56704 19-352, looked up)
# Protein Wnt-3a: SYPIWWSLAVGPQYSSLGSQPILCASIPGLVPKQLRFCRNYVEIMPSVAEGIKIGIQECQHQFRGRRWNCTTVHDSLAIFGPVLDKATRESAFVHAIASAGVAFAVTRSCAEGTAAICGCSSRHQGSPGKGWKWGGCSEDIEFGGMVSREFADARENRPDARSAMNRHNNEAGRQAIASHMHLKCKCHGLSGSCEVKTCWWSQPDFRAIGDFLKDKYDSASEMVVEKHRESRGWVETLRPRYTYFKVPTERDLVYYEASPNFCEPNPETGSFGTRDRTCNVSSHGIDGCDLLCCGRGHNARAERRREKCRCVFHWCCYVSCQECTRVYDVHTCK
# notes: Wnt family growth factor
# B3: BMP4 (protein, UniProt P12644 293-408, looked up)
# Bone morphogenetic protein 4: SPKHHSQRARKKNKNCRRHSLYVDFSDVGWNDWIVAPPGYQAFYCHGDCPFPLADHLNSTNHAIVQTLVNSVNSSIPKACCVPTELSAISMLYLDEYDKVVLKNYQEMVVEGCGCR
# notes: bone morphogenic protein 4, member of the TGFβ family
# B4: FGF-10 (protein, UniProt O15520 38-208, looked up)
# Fibroblast growth factor 10: QALGQDMVSPEATNSSSSSFSSPSSAGRHVRSYNHLQGDVRWRKLFSFTKYFLKIEKNGKVSGTKKENCPYSILEITSVEIGVVAVKAINSNYYLAMNKKGKLYGSKEFNNDCKLKERIEENGYNTYASFNWQHNGRQMYVALNGKGAPRRGQKTRRKNTSAHFLPMVVHS
# notes: fibroblast growth factor
# B5: activin B (protein, UniProt P09529 293-407, looked up)
# Inhibin beta B chain: GLECDGRTNLCCRQQFFIDFRLIGWNDWIIAPTGYYGNYCEGSCPAYLAGVPGSASSFHTAVVNQYRMRGLNPGTVNSCCIPTKLSTMSMLYFDDEYNIVKRDVPNMIVEECGCA
# modifications: Inhibin beta B chain
# Assays:
# Format in all cases: cell-based, human
# [1] = system: definitive endoderm; experiment: Dorsal / ventral / PDX1-negative foregut endoderm differentiation from definitive endoderm (marker gene expression); settings: for specification of definitive endoderm into foregut endoderm: FGF10 5-500 ng/ml, KAAD-cyclopamine 0.1-2 μM
# Protocol: Definitive endoderm was produced from undifferentiated hESCs using a three or five day protocol in which activin A was provided to the culture medium at a concentration of 100 ng/ml each day. For both dorsal and ventral differentiation, the medium composition for the first five days was as follows: Day 1—RPMI+0% fetal bovine serum (FBS), Day 2—RPMI+0.2% PBS, Day 3—RPMI+2.0% FBS, Day 4—RPMI+2.0% FBS and Day 5—RPMI+2.0% FBS. For the ventral differentiation, definitive endoderm was produced for 3 days in activin A at 100 ng/ml and then exposed to BMP4 at 3 ng/ml and FGF10 at 50 ng/ml. […] For the dorsal differentiation procedure, definitive endoderm was produced for 5 days in activin A at 100 ng/ml and then exposed to retinoic acid (RA) at 2 μM and activin A at 25 ng/ml in CMRL medium containing B27 supplement (1:200).
# Four separate conditions were used to treat hESCs that result in varying proportions of differentiation to definitive endoderm. All four conditions utilized RPMI supplemented with 0% FBS on the first day, 0.2% FBS on second day, and 2% FBS on days 3 and 4. The four conditions were as follows: (a) BMP4 at 100 ng/mL with SU5402 at 5 μM; (b) no exogenous growth factors; (c) activin A at 15 ng/mL; and (d) activin A at 100 ng/ml. […] All cultures were then incubated for 2 days with BMP4 at 3 ng/mL, FGF10 at 50 ng/ml and KAAD-cyclopamine at 0.5 μM in a base medium of 2% FBS in RPMI followed by 6 days with BMP4 at 3 ng/mL, FGF10 at 50 ng/ml and KAAD-cyclopamine at 0.5 μM in a base medium composed of CMRL with 1:200 dilution of B27 extract.
# Definitive endoderm was produced by exposing undifferentiated hESCs to activin at 100 ng/mL in RPMI base medium supplemented with 0%, 0.2%, and 2% FBS on days 1 through 3, respectively. After 3 days of activin A treatment, the cultures were switched to a base medium composed of RPMI containing 2% FBS and maintained under one of the following conditions: (a) BMP4 at 3 ng/ml with FGF10 at 50 ng/ml and KAAD-cyclopamine at 0.5 μM; (b) FGF10 at 50 ng/ml and KAAD-cyclopamine at 0.5 μM; or (c-e) no exogenous factors. After two days, the base medium was changed to CMRL plus B27 supplement (1:200) and cells were maintained according to conditions (a-c) above. Alternatively, cells were maintained with no exogenous factors in RPMI with B27 supplement (1:200) (condition (d)) or RPMI with 2% FBS (condition (e)). The same factor treatment conditions were maintained for 8 more days of differentiation.
# Human embryonic stem cells were differentiated for 7 days via a 2-step protocol to achieve PDX1 cells. The first step comprised 5 days differentiation in activin A (100 ng/ml) to robustly produce DE (D'Amour, K., et al., Nature Biotechnology 23, 1534-1541, (2005)). […]
# [2] = system: PDX1 gene expression; experiment: Q-PCR of PDX1 gene expression in hESC-derived definitive endoderm cultures; settings: for PDX1 induction over RA alone: added to 1 μM RA on day four, ninety six hours (FIG. 37A)
# Protocol: (§1) Human embryonic stem cells were cultured with or without activins for four days. On day four, 1 μM RA and 50 ng/ml FGF-10 were added to the cell culture. Forty-eight hours after the RA/FGF-10 addition, the expression of the PDX1 marker gene and other marker genes not specific to foregut endoderm were quantitated by Q-PCR.
# (§2) As in the previous Example, hESCs were cultured with or without activins for four days. On day four, the cells were treated with one of the following: 1 μM RA alone; 1 μM RA in combination with either FGF-4 or FGF-10; or 1 μM RA in combination with both FGF-4 and FGF-10. The expression of PDX1, SOX7 and NFM were quantitated by Q-PCR ninety six hours after RA or RA/FGF.
# Human embryonic stem cells were cultured with or without activins for four days. On day four, FGF-10 at 50 ng/ml was added to the culture in combination with RA at 0.04 μM, 0.2 μM or 1.0 μM. The expression of the PDX1 marker gene as well as other markers not specific for foregut endoderm were quantitated by Q-PCR.
# Human embryonic stem cells were induced to differentiate to definitive endoderm by treatment of undifferentiated hES cells grown on mouse embryonic fibroblast feeders with high dose activin A (100-200 ng/ml in 0.5-2% FBS/DMEM/F12) for 4 days. The no activin A control received 0.5-2% FBS/DMEM/F12 with no added activin A. At four days, cultures received either no activin A in 2% FBS (none), and in 2% serum replacement (SR), or 50 ng/ml activin A together with 2 μM RA and 50 ng/ml FGF-10 in 2% FBS/DMEM/F12 (none, +FBS, +B27) and similarly in 2% Serum replacement (SR). B27 supplement, (Gibco/BRL), was added as a 1/50 dilution directly into 2% FBS/DMEM/F12 (+B27). Duplicate cell samples where taken for each point, and total RNA was isolated and subjected to Q-PCR as previously described.
# Human embryonic stem cells were induced to differentiate to definitive endoderm by treatment of undifferentiated hESCs grown on mouse embryonic fibroblast feeders with high dose activin A (50 ng/ml) in low serum/RPMI for 6 days. The FBS dose was 0% on day one, 0.2% on day two and 2% on days 3-6. The negative control for definitive endoderm production (NF) received 2% FBS/RPMI with no added activin A. In order to induce PDX1 expression, each of the cultures received retinoic acid at 2 μM in 2% FBS/RPMI on day 6. The cultures treated with activin A on days one through five were provided with different dosing combinations of activin A and activin B or remained in activin A alone at 50 ng/ml. The no activin A control culture (NF) was provided neither activin A nor activin B. This RA/activin treatment was carried out for 3 days at which time PDX1 gene expression was measured by Q-PCR from duplicate cell samples.
# The definitive endoderm cultures generated by 5 days of activin A treatment were then induced to differentiate to PDX1 expressing endoderm by the addition of RA in 2% FBS/RPMI containing activin A at 25 ng/ml for four days. The RA was 2 μM for the first two days of addition, 1 μM on the third day and 0.5 μM on the fourth day. This base medium for PDX1 induction was provided fresh (2A25R) or after conditioning for 24 hours by one of four different cell populations. Conditioned media (CM) were generated from either mouse embryonic fibroblasts (MEFCM) or from hESCs that were first differentiated for 5 days by one of three conditions; i) 3% FBS/RPMI (CM2), or ii) activin A (CM3) or iii) bone morphogenic protein 4 (BMP4) (CM4). […]
# [3] = system: definitive endoderm cells; experiment: Maintenance and expansion of definitive endoderm cells in culture; settings: in the presence of activin
# Description: Definitive endoderm cells produced by methods described herein have been maintained and expanded in culture in the presence of activin for greater than 50 days without appreciable differentiation. In such cases, SOX17, CXCR4, MIXL1, GATA4, HNF3β expression is maintained over the culture period. Additionally, TM, SPARC, OCT4, AFP, SOX7, ZIC1 and BRACH were not detected in these cultures. It is likely that such cells can be maintained and expanded in culture for substantially longer than 50 days without appreciable differentiation.
# [4] = system: SOX17 gene expression; experiment: Q-PCR of SOX17 gene expression in differentiating hESCs; settings: added to activin A and activin B treated cultures (FIG. 23)
# Protocol: In the following experiments, real-time quantitative RT-PCR (Q-PCR) was the primary assay used for screening the effects of various treatments on hESC differentiation. In particular, real-time measurements of gene expression were analyzed for multiple marker genes at multiple time points by Q-PCR. Marker genes characteristic of the desired as well as undesired cell types were evaluated to gain a better understanding of the overall dynamics of the cellular populations. The strength of Q-PCR analysis includes its extreme sensitivity and relative ease of developing the necessary markers, as the genome sequence is readily available. Furthermore, the extremely high sensitivity of Q-PCR permits detection of gene expression from a relatively small number of cells within a much larger population. In addition, the ability to detect very low levels of gene expression provides indications for “differentiation bias” within the population. The bias towards a particular differentiation pathway, prior to the overt differentiation of those cellular phenotypes, is unrecognizable using immunocytochemical techniques. […] Additionally, Q-PCR provides a mechanism by which to evaluate the success of a differentiation protocol in a quantitative format at semi-high throughput scales of analysis.
# The approach taken here was to perform relative quantitation using SYBR Green chemistry on a Rotor Gene 3000 instrument (Corbett Research) and a two-step RT-PCR format. Such an approach allowed for the banking of cDNA samples for analysis of additional marker genes in the future, thus avoiding variability in the reverse transcription efficiency between samples.
# To generate PCR template, total RNA was isolated using RNeasy (Qiagen) and quantitated using RiboGreen (Molecular Probes). Reverse transcription from 350-500 ng of total RNA was carried out using the iScript reverse transcriptase kit (BioRad), which contains a mix of oligo-dT and random primers. Each 20 μL reaction was subsequently diluted up to 100 μL total volume and 3 μL was used in each 10 μL Q-PCR reaction containing 400 nM forward and reverse primers and 5 μL 2×SYBR Green master mix (Qiagen). Two step cycling parameters were used employing a 5 second denature at 85-94° C. (specifically selected according to the melting temp of the amplicon for each primer set) followed by a 45 second anneal/extend at 60° C. Fluorescence data was collected during the last 15 seconds of each extension phase. A three point, 10-fold dilution series was used to generate the standard curve for each run and cycle thresholds (Ct's) were converted to quantitative values based on this standard curve. The quantitated values for each sample were normalized to housekeeping gene performance and then average and standard deviations were calculated for triplicate samples. At the conclusion of PCR cycling, a melt curve analysis was performed to ascertain the specificity of the reaction. A single specific product was indicated by a single peak at the Tm appropriate for that PCR amplicon.
# A first step in establishing the Q-PCR methodology was validation of appropriate housekeeping genes (HGs) in the experimental system. […] We measured the expression levels of Cyclophilin G, hypoxanthine phosphoribosyltransferase 1 (HPRT), beta-2-microglobulin, hydroxymethylbiane synthase (HMBS), TATA-binding protein (TBP), and glucoronidase beta (GUS) in differentiating hESCs. […] We routinely used both Cyclophilin G and GUS to calculate a normalization factor for all samples. The use of multiple HGs simultaneously reduces the variability inherent to the normalization process and increases the reliability of the relative gene expression values.
# We were the first to analyze and describe the effect of TGFβ family growth factors, such as Nodal/activin/BMP, for use in creating definitive endoderm cells from embryonic stem cells in in vitro cell cultures. […]
# [5] = system: definitive endoderm cells; experiment: Q-PCR of marker genes other than PDX1 in hESC-derived definitive endoderm cultures; settings: FIG. 40B
# Protocol: as §1, §2
# Human embryonic stem cells were cultured with or without activins for four days. […] The expression of the PDX1 marker gene as well as other markers not specific for foregut endoderm were quantitated by Q-PCR.
# Human embryonic stem cells were induced to differentiate to definitive endoderm by treatment of undifferentiated hESCs grown on mouse embryonic fibroblast feeders with high dose activin A (50 ng/ml) in low serum/RPMI for 6 days. […] The no activin A control culture (NF) was provided neither activin A nor activin B. This RA/activin treatment was carried out for 3 days at which time PDX1 gene expression was measured by Q-PCR from duplicate cell samples. […]
molecule,measurement,setting,value
"CC1=C2C[C@H]3[C@@H](CC=C4CC(=O)CC[C@@]43C)[C@@H]2CC[C@]12O[C@@H]1C[C@H](C)CN(CCNC(=O)CCCCCNC(=O)CCc3ccccc3)[C@H]1[C@H]2C [KAAD-cyclopamine, reference compound]",specification of definitive endoderm into foregut endoderm,[1],further specified definitive endoderm cells into the foregut endoderm domain
"CC1=C(/C=C/C(C)=C/C=C/C(C)=C/C(=O)O)C(C)(C)CCC1 [retinoic acid, reference compound]",increase in PDX1 gene expression,"[2]; activin for four days followed by 1 μM RA, ninety six hours",60 fold
activin,time definitive endoderm cells were maintained and expanded in culture without appreciable differentiation,[3],greater than 50 days
same,PDX1 expression in activin treated cell cultures relative to cultures that received no activin prior to RA application,"[2]; four days with or without activins, then 1 μM RA and 50 ng/ml FGF-10 for 48 hours",160 fold
B1,PDX1 induction over RA alone,[2],approximately 3 fold
B2,SOX17 expression relative to activin A and activin B alone,[4],increases SOX17 expression
B3,production of PDX1-positive ventral foregut endoderm,"[1]; after 3 days activin 100 ng/mL, FGF10 50 ng/ml, KAAD-cyclopamine 0.5 μM, BMP4 3 ng/ml (FIGS. 52A, 52B)",not needed
B4,specification of definitive endoderm into foregut endoderm,[1],beneficial
same,PDX1 induction over RA alone,[2],60 fold
B5,HNF6 expression,[5],without increase in HNF6 expression
same,increase in PDX1 expression over the culture that received only activin A at 50 ng/ml,"[2]; activin B 10-50 ng/ml with 25 or 50 ng/ml activin A and 2 μM RA, 3 days (FIG. 40A)",at least 2 fold
